The subject of series [1] is HeLa Kyoto. Description: solubility in G1/S (NP-40 vs SDS abundance) (log2 ratio); higher = more soluble. The settings on record: cell cycle stage: G1/S.
Series [2] relates to HeLa Kyoto. Description: thermal stability score vs G1/S (z-score of summed log2 fold changes over temperatures); higher = more thermally stable than in G1/S.
Series [3] relates to HeLa Kyoto. Description: melting temperature (median over replicates), in situ; higher = more thermally stable.
Series [4] concerns HeLa Kyoto. Description: solubility change mitosis vs G1/S (difference of NP-40 vs SDS log2 ratios) (log2 ratio difference); higher = more soluble in mitosis.
Where [5] appears, read: cell cycle stage: early G1 (4.5 h after nocodazole release).

The values that follow come from the supplement of paper PMC5998384.
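Throughout, for melting temperature (median over replicates), in situ: HeLa Kyoto cells synchronized by double thymidine or nocodazole block, proteins quantified by TMT10plex mass spectrometry, three independent biological replicates.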
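Throughout, for solubility change mitosis vs G1/S (difference of NP-40 vs SDS log2 ratios): synchronized HeLa Kyoto cells (double thymidine block for G1/S, nocodazole release for mitosis), protein amounts in NP-40 versus SDS lysates quantified by mass spectrometry, three biological replicates.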
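Throughout, for solubility in G1/S (NP-40 vs SDS abundance): HeLa Kyoto cells arrested at G1/S by double thymidine block, proteins quantified by TMT10plex mass spectrometry in mild NP-40 versus SDS extracts, three biological replicates.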
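Throughout, for thermal stability score vs G1/S (z-score of summed log2 fold changes over temperatures): synchronized HeLa Kyoto cells, proteins quantified by TMT10plex mass spectrometry, three biological replicates, mitosis taken 0.5 h after nocodazole release, G1/S directly after double thymidine block.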

Turning to “MESAGLEQLLRELLLPDTERIRRATEQLQIVLRAPAALPALCDLLASAADPQIRQFAAVLTRRRLNTRWRRLAAEQRESLKSLILTALQRETEHCVSLSLAQLSATIFRKEGLEAWPQLLQLLQHSTHSPHSPEREMGLLLLSVVVTSRPEAFQPHHRELLRLLNETLGEVGSPGLLFYSLRTLTTMAPYLSTEDVPLARMLVPKLIMAMQTLIPIDEAKACEALEALDELLESEVPVITPYLSEVLTFCLEVARNVALGNAIRIRILCCLTFLVKVKSKALLKNRLLPPLLHTLFPIVAAEPPPGQLDPEDQDSEEEELEIELMGETPKHFAVQVVDMLALHLPPEKLCPQLMPMLEEALRSESPYQRKAGLLVLAVLSDGAGDHIRQRLLPPLLQIVCKGLEDPSQVVRNAALFALGQFSENLQPHISSYSREVMPLLLAYLKSVPLGHTHHLAKACYALENFVENLGPKVQPYLPELMECMLQLLRNPSSPRAKELAVSALGAIATAAQASLLPYFPAIMEHLREFLLTGREDLQPVQIQSLETLGVLARAVGEPMRPLAEECCQLGLGLCDQVDDPDLRRCTYSLFAALSGLMGEGLAPHLEQITTLMLLSLRSTEGIVPQYDGSSSFLLFDDESDGEEEEELMDEDVEEEDDSEISGYSVENAFFDEKEDTCAAVGEISVNTSVAFLPYMESVFEEVFKLLECPHLNVRKAAHEALGQFCCALHKACQSCPSEPNTAALQAALARVVPSYMQAVNRERERQVVMAVLEALTGVLRSCGTLTLKPPGRLAELCGVLKAVLQRKTACQDTDEEEEEEDDDQAEYDAMLLEHAGEAIPALAAAAGGDSFAPFFAGFLPLLVCKTKQGCTVAEKSFAVGTLAETIQGLGAASAQFVSRLLPVLLSTAQEADPEVRSNAIFGMGVLAEHGGHPAQEHFPKLLGLLFPLLARERHDRVRDNICGALARLLMASPTRKPEPQVLAALLHALPLKEDLEEWVTIGRLFSFLYQSSPDQVIDVAPELLRICSLILADNKIPPDTKAALLLLLTFLAKQHTDSFQAALGSLPVDKAQELQAVLGLS [IPO4]”, in the series on HeLa Kyoto [1], the “solubility in G1/S (log2)” value was -0.204. In addition, the thermal stability score came out at 0.678 with HeLa Kyoto [2] (setting [5]) and 2.82 in the series with HeLa Kyoto [2] (cell cycle stage: mitosis). Also, the melting temperature in the series on HeLa Kyoto [3] (cell cycle stage: G1/S) was found to be 49.6 °C; in the series on HeLa Kyoto [3] (cell cycle stage: mitosis), 49.9 °C. In addition, the “solubility change mitosis (log2)” value in the series with HeLa Kyoto [4] is -0.104.

Turning to “MESEQLFHRGYYRNSYNSITSASSDEELLDGAGVIMDFQTSEDDNLLDGDTAVGTHYTMTNGGSINSSTHLLDLLDEPIPGVGTYDDFHTIDWVREKCKDRERHRRINSKKKESAWEMTKSLYDAWSGWLVVTLTGLASGALAGLIDIAADWMTDLKEGICLSALWYNHEQCCWGSNETTFEERDKCPQWKTWAELIIGQAEGPGSYIMNYIMYIFWALSFAFLAVSLVKVFAPYACGSGIPEIKTILSGFIIRGYLGKWTLMIKTITLVLAVASGLSLGKEGPLVHVACCCGNIFSYLFPKYSTNEAKKREVLSAASAAGVSVAFGAPIGGVLFSLEEVSYYFPLKTLWRSFFAALVAAFVLRSINPFGNSRLVLFYVEYHTPWYLFELFPFILLGVFGGLWGAFFIRANIAWCRRRKSTKFGKYPVLEVIIVAAITAVIAFPNPYTRLNTSELIKELFTDCGPLESSSLCDYRNDMNASKIVDDIPDRPAGIGVYSAIWQLCLALIFKIIMTVFTFGIKVPSGLFIPSMAIGAIAGRIVGIAVEQLAYYHHDWFIFKEWCEVGADCITPGLYAMVGAAACLGGVTRMTVSLVVIVFELTGGLEYIVPLMAAVMTSKWVGDAFGREGIYEAHIRLNGYPFLDAKEEFTHTTLAADVMRPRRNDPPLAVLTQDNMTVDDIENMINETSYNGFPVIMSKESQRLVGFALRRDLTIAIESARKKQEGIVGSSRVCFAQHTPSLPAESPRPLKLRSILDMSPFTVTDHTPMEIVVDIFRKLGLRQCLVTHNGRLLGIITKKDILRHMAQTANQDPASIMFN [CLCN3]”, the “solubility in G1/S (log2)” value in the series with HeLa Kyoto [1] was -0.354. For the same sequence, the thermal stability score is -0.456 in the series with HeLa Kyoto [2] (setting [5]) and -0.317 with HeLa Kyoto [2] (cell cycle stage: mitosis). In addition, the melting temperature in the series with HeLa Kyoto [3] (cell cycle stage: G1/S) and in the series on HeLa Kyoto [3] (cell cycle stage: mitosis) was 54.9 °C in each case. The “solubility change mitosis (log2)” value in the series with HeLa Kyoto [4] was -0.0871.

Regarding “MESMLNKLKSTVTKVTADVTSAVMGNPVTREFDVGRHIASGGNGLAWKIFNGTKKSTKQEVAVFVFDKKLIDKYQKFEKDQIIDSLKRGVQQLTRLRHPRLLTVQHPLEESRDCLAFCTEPVFASLANVLGNWENLPSPISPDIKDYKLYDVETKYGLLQVSEGLSFLHSSVKMVHGNITPENIILNKSGAWKIMGFDFCVSSTNPSEQEPKFPCKEWDPNLPSLCLPNPEYLAPEYILSVSCETASDMYSLGTVMYAVFNKGKPIFEVNKQDIYKSFSRQLDQLSRLGSSSLTNIPEEVREHVKLLLNVTPTVRPDADQMTKIPFFDDVGAVTLQYFDTLFQRDNLQKSQFFKGLPKVLPKLPKRVIVQRILPCLTSEFVNPDMVPFVLPNVLLIAEECTKEEYVKLILPELGPVFKQQEPIQILLIFLQKMDLLLTKTPPDEIKNSVLPMVYRALEAPSIQIQELCLNIIPTFANLIDYPSMKNALIPRIKNACLQTSSLAVRVNSLVCLGKILEYLDKWFVLDDILPFLQQIPSKEPAVLMGILGIYKCTFTHKKLGITKEQLAGKVLPHLIPLSIENNLNLNQFNSFISVIKEMLNRLESEHKTKLEQLHIMQEQQKSLDIGNQMNVSEEMKVTNIGNQQIDKVFNNIGADLLTGSESENKEDGLQNKHKRASLTLEEKQKLAKEQEQAQKLKSQQPLKPQVHTPVATVKQTKDLTDTLMDNMSSLTSLSVSTPKSSASSTFTSVPSMGIGMMFSTPTDNTKRNLTNGLNANMGFQTSGFNMPVNTNQNFYSSPSTVGVTKMTLGTPPTLPNFNALSVPPAGAKQTQQRPTDMSALNNLFGPQKPKVSMNQLSQQKPNQWLNQFVPPQGSPTMGSSVMGTQMNVIGQSAFGMQGNPFFNPQNFAQPPTTMTNSSSASNDLKDLFG [SCYL2]”, the “solubility in G1/S (log2)” value in the series on HeLa Kyoto [1] was found to be 0.129. The thermal stability score in the series with HeLa Kyoto [2] (setting [5]) was 0.219; with HeLa Kyoto [2] (cell cycle stage: mitosis), 0.842. The melting temperature in the series with HeLa Kyoto [3] (cell cycle stage: G1/S) is 52.9 °C; in the series with HeLa Kyoto [3] (cell cycle stage: mitosis) it was 53.5 °C. In addition, the “solubility change mitosis (log2)” value with HeLa Kyoto [4] was -0.174.
